Columns and labels:
[1] = system: T1, Nc1ncnc2c1ncn2[C@@H]1O[C@H](COP(=O)(O)OP(=O)(O)OP(=O)(O)O)[C@@H](O)[C@H]1O; experiment: NADH-coupled (PK/LDH) ATPase assay, Michaelis-Menten fit; type: biochemical, Escherichia coli; conditions: dsDNA present, 5 mM MgCl2, 1 mM MnCl2, 50 mM KCl, 25 mM Tris pH 7.5, 37°C
T1 construct: full-length SbcC (pET28) and SbcD with C-terminal His6 (pET21b), co-expressed in E. coli BL21(DE3); SbcC2-SbcD2 heterotetramer; printed 4M0V is the SbcD dimer structure only; with Nuclease SbcCD subunit D

[2] = target: SbcC;SbcD H84Q H84Q (Escherichia coli;Escherichia coli) (UniProt P13458+P0AG76); experiment: fluorescence anisotropy; conditions: 5 mM Mg2+, 1 mM Mn2+; 25 mM Tris pH 7.5, 50 mM KCl, 5 mM MgCl2, 1 mM MnCl2, 1 mM DTT, 1 mM ATP where stated; 5 nM DNA, 2-1000 nM SbcCD, 20 min at 25 C

Row | Substance | Km [1] [µM] | Kd [2] [nM]
1 | SbcCD (Escherichia coli K-12) | 46 ± 6 | 
2 | 60 bp DNA, GC-rich positions 15-29 |  | 132
3 | 60 bp DNA, AT-rich positions 15-29 |  | 45

Reference: paper PMC6265447, “The bacterial Mre11–Rad50 homolog SbcCD cleaves opposing strands of DNA by two chemically distinct nuclease reactions” (Nucleic Acids Research, 2018)
